Measured values: patent KR20200059381A

Experiments:
[1] = target: 구제역 바이러스 혈청형 O 배양액(cal1~cal4) (Foot-and-mouth disease virus serotype O); assay: sandwich ELISA, cal3, 1E58 coat 1 ug/ml, 1E58-HRP 0.2 ug/ml, 450 nm
[2] = target: 구제역 바이러스 혈청형 O 배양액(cal1~cal4) (Foot-and-mouth disease virus serotype O); assay: sandwich ELISA, cal4, 1E58 coat 1 ug/ml, 1E58-HRP 0.4 ug/ml, 450 nm
[3] = target: FMDV 혈청형 O 보은 1차 (Foot-and-mouth disease virus serotype O); assay: sandwich ELISA, 1E58 coat 4 ug/ml, 1E58-HRP 0.3 ug/ml, virus culture fluid
[4] = target: FMDV 혈청형 O O/Hapcheon/KOR/2014 (Foot-and-mouth disease virus serotype O); assay: as above
[5] = target: FMDV 혈청형 SAT3 SAT3/ZIM/4/81 (Foot-and-mouth disease virus serotype SAT3); assay: as above
[6] = target: FMDV 혈청형 O Yang-Ju (Foot-and-mouth disease virus serotype O); assay: as above
[7] = target: FMDV 혈청형 O Primorsky (Foot-and-mouth disease virus serotype O); assay: as above
[8] = target: FMDV 혈청형 A Iran05 (Foot-and-mouth disease virus serotype A); assay: as above
[9] = target: FMDV 혈청형 O 정읍 (Foot-and-mouth disease virus serotype O); assay: as above
[10] = target: FMDV 혈청형 O O1 Manisa (Foot-and-mouth disease virus serotype O); assay: as above
[11] = target: FMDV 혈청형 Asia1 CAM/9/80 (Foot-and-mouth disease virus serotype Asia1); assay: as above
[12] = target: FMDV 혈청형 A 연천주 (Foot-and-mouth disease virus serotype A); assay: as above
[13] = target: FMDV 혈청형 O 김제 (Foot-and-mouth disease virus serotype O); assay: as above
[14] = target: FMDV 혈청형 O 진천 (Foot-and-mouth disease virus serotype O); assay: as above
[15] = target: FMDV 혈청형 O Campos (Foot-and-mouth disease virus serotype O); assay: as above
[16] = target: FMDV 혈청형 Asia1 Shamir (Foot-and-mouth disease virus serotype Asia1); assay: as above
[17] = target: FMDV 혈청형 A A22 Iraq (Foot-and-mouth disease virus serotype A); assay: as above
[18] = target: FMDV 혈청형 SAT2 SAT2/ZIM/5/81 (Foot-and-mouth disease virus serotype SAT2); assay: as above
[19] = target: FMDV 혈청형 O Yunlin/Taiwan/97 (Foot-and-mouth disease virus serotype O); assay: as above
[20] = target: FMDV 혈청형 SAT1 SAT1/BOT/1/68 (Foot-and-mouth disease virus serotype SAT1); assay: as above
[21] = target: FMDV 혈청형 C C3/Resende/BRA/55 (Foot-and-mouth disease virus serotype C); assay: as above
[22] = target: FMDV 혈청형 Asia1 MOG/05 (Foot-and-mouth disease virus serotype Asia1); assay: as above
[23] = target: FMDV 혈청형 A 포천주 (Foot-and-mouth disease virus serotype A); assay: as above
[24] = target: FMDV 혈청형 A Malaysia97 (Foot-and-mouth disease virus serotype A); assay: as above
[25] = target: 구제역 바이러스 혈청형 O 배양액(cal1~cal4) (Foot-and-mouth disease virus serotype O); assay: sandwich ELISA, cal2, 1E58 coat 1 ug/ml, 1E58-HRP 0.4 ug/ml, 450 nm
[26] = target: 구제역 바이러스 혈청형 O 배양액(cal1~cal4) (Foot-and-mouth disease virus serotype O); assay: sandwich ELISA, cal3, 1E58 coat 4 ug/ml, 1E58-HRP 0.6 ug/ml, 450 nm
[27] = target: 구제역 바이러스 혈청형 O 배양액(cal1~cal4) (Foot-and-mouth disease virus serotype O); assay: sandwich ELISA, cal1, 1E58 coat 8 ug/ml, 1E58-HRP 0.2 ug/ml, 450 nm
[28] = target: 구제역 바이러스 혈청형 O 배양액(cal1~cal4) (Foot-and-mouth disease virus serotype O); assay: sandwich ELISA, cal4, 1E58 coat 2 ug/ml, 1E58-HRP 0.2 ug/ml, 450 nm
[29] = target: 구제역 바이러스 혈청형 O 배양액(cal1~cal4) (Foot-and-mouth disease virus serotype O); assay: sandwich ELISA, cal3, 1E58 coat 2 ug/ml, 1E58-HRP 0.4 ug/ml, 450 nm
[30] = target: 구제역 바이러스 혈청형 O 배양액(cal1~cal4) (Foot-and-mouth disease virus serotype O); assay: sandwich ELISA, cal4, 1E58 coat 2 ug/ml, 1E58-HRP 0.8 ug/ml, 450 nm

B1: 단클론항체 1E58 (antibody, V domains shown)
VH: EFQLQQSRPELAKPGASVKISCKTSGHTFTTYTMHWVKQSHVKSLEWIGCFNPNNGGATYNQKFKGKATLTMDKSSNTAYVEVRSLTSDDSAVYYCAYGNYVNFDYWGQGTTLTVSS
VL: DIVLTQSPASLAVSLGQRATISYRASKSVSTSGYSYMHWNQQKPGQPPRLLIYLVSNLESGVPARFSGSGSGTDFTLNIHPVEEEDAATYYCQHIRELTRSEGGPSWKN
Binder B1 has an O.D [1] of 0.54 O.D, an O.D [2] of 0.65 O.D and an O.D (450nm) [3] of 3.64 O.D. For the same binder, the O.D (450nm) [4] was 3.99 O.D, the O.D (450nm) [5] was 3.6 O.D and the O.D (450nm) [6] was 4 O.D. For the same binder, the O.D (450nm) [7] was 4 O.D, the O.D (450nm) [8] was 4 O.D and the O.D (450nm) [9] was 3.86 O.D. It also gave an O.D (450nm) [10] of 4 O.D, an O.D (450nm) [11] of 4 O.D and an O.D (450nm) [12] of 3.5 O.D. The O.D (450nm) [13] was 4 O.D, the O.D (450nm) [14] was 4 O.D and the O.D (450nm) [15] was 3.96 O.D. It also gave an O.D (450nm) [16] of 4 O.D, an O.D (450nm) [17] of 3.79 O.D and an O.D (450nm) [18] of 1.95 O.D. The O.D (450nm) [19] was 4 O.D, the O.D (450nm) [20] was 2.22 O.D and the O.D (450nm) [21] was 3.75 O.D. For the same binder, the O.D (450nm) [22] was 3.85 O.D, the O.D (450nm) [23] was 3.87 O.D and the O.D (450nm) [24] was 4 O.D. For the same binder, the O.D [25] was 1.4 O.D, the O.D [26] was 2.15 O.D and the O.D [27] was 2.35 O.D. For the same binder, the O.D [28] was 0.62 O.D, the O.D [29] was 1.37 O.D and the O.D [30] was 1.05 O.D.
